Reference: PMC8115288, “INI1/SMARCB1 Rpt1 domain mimics TAR RNA in binding to integrase to facilitate HIV-1 replication”

Key:
[1] = target: T1, GST-IN-CTD (HIV-1 integrase C-terminal domain) (HIV-1, UniProt P04585 1348-1435); assay: competition (AlphaScreen); low salt; competes with His6-SUMO-INI1(183-304) (0.094 uM) for GST-CTD (0.186 uM); Alpha proximity assay, low salt (100 mM NaCl; 500 mM in salt test); buffer, pH and temperature not in the material; details: protein: recombinant; tags: GST; hairpin
[2] = target: T1, GST-IN-CTD (HIV-1 integrase C-terminal …); assay: AlphaScreen; 100 mM NaCl; displaced by INI1(183-304), IC50 of INI1 about 5 nM (Fig. 4e); Alpha proximity assay, low salt (100 mM NaCl; 500 mM in salt test); buffer, pH and temperature not in the material; details: protein: recombinant; tags: GST; label: biotin; hairpin

B1: unlabeled TAR RNA (HIV-1 vRNA 1-57) (structured_RNA)
RNA: GGUCUCUCUGGUUAGACCAGAUCUGAGCCUGGGAGCUCUCUGGCUAACUAGGGAACC
For B1, the IC50 [1] was about 5 nM.

B2: Bio-TAR RNA (HIV-1 vRNA 1-57) (structured_RNA)
RNA: GGUCUCUCUGGUUAGACCAGAUCUGAGCCUGGGAGCUCUCUGGCUAACUAGGGAACC
modifications: biotin-dT (terminal; end ambiguous in printed table)
B2: binds [2].
